According to patent US5726291, “Amylase inhibitors” (Nisshin Flour Milling Co., Ltd., dated 1998):

T1: human pancreatic α-amylase (human, UniProt P04746)
T1 sequence: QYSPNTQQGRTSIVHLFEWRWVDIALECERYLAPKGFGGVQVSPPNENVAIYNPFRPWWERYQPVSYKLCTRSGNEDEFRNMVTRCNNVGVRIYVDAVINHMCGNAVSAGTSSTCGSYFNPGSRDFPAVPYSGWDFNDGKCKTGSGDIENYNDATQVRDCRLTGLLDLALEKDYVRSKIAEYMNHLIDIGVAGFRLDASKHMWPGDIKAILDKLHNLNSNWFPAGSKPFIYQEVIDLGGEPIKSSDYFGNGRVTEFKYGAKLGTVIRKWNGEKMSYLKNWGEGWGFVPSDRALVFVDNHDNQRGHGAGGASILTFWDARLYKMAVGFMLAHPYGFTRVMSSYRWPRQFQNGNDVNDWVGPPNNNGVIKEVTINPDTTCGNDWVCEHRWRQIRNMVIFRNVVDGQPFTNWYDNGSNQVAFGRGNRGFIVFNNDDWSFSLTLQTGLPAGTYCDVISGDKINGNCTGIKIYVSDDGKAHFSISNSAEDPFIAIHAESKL


biological target: T1, human pancreatic α-amylase; test: cell-based or functional assay

| Amylase inhibitory activity (U/mg) | Binder |
| --- | --- |
| 20300 | Protein 0.19 AI (other) SGPWMCYPGQAFQVPALPACRPLLRLQCNGSQVPEAVLRDCCQQLAHISEWCRCGALYSMLDSMYKEHGAQEGQAGTGAFPRCRREVVKLTAASITAVCRLPIVVDASGDGAYVCKDVAAYPDA |
| 20500 | Protein (A) (other) SGPWMCYPGYAFKVPALPGCRPVLKLQCNGSQVPEAVLRDCCQQLADISEWCRCGALYSMLDSMYKEHGVQEGQAGTGAFPSCRREVVKLTAASITAVCKLPIVIDASGDGAYVCKGVAAYP |
| 26100 | Protein 0.26 AI (other) SGPWMCYPGYAFKVPALPGCRPVLKLQCNGSQVPEAVLRDCCQQLADISEWCRCGALYSMLDSMYKEHGVQEGQAGTGAFPSCRREVVKLTAASITAVCKLPIVIDASGDGAYVCKGVAAYPDA |
| 3940 | Protein 0.53 AI (other) SGPWMCYPGQAFQVPALPGCRPLLKLQCNGSQVPEAVLRDCCQQLADISEWPRCGALYSMLDSMYKEHGVSEGQAGTGAFPSCRREVVKLTAASITAVCRLPIVVDASGDGAYVCKDVAAYPDA |
| 840 | Protein 0.28 AI (other) SGPWSWCNPATGYKVSALTGCRAMVKLQCVGSQVPEAVLRDCCQQLADINNEWCRCGDLSSMLRAVYQELGVREGKEVLPGCRKEVMKLTAASVPEVCKVPIPNPSGDRAGVCYGDWCAYPDV |
